Experimental data published in US20220235380.

Target: ALPG/P priming receptor encoded by the LG1 + FAS/PTPN2 shRNA circuits AB-1013, AB-1014 and AB-1015
Sequence (chain, as listed by the source): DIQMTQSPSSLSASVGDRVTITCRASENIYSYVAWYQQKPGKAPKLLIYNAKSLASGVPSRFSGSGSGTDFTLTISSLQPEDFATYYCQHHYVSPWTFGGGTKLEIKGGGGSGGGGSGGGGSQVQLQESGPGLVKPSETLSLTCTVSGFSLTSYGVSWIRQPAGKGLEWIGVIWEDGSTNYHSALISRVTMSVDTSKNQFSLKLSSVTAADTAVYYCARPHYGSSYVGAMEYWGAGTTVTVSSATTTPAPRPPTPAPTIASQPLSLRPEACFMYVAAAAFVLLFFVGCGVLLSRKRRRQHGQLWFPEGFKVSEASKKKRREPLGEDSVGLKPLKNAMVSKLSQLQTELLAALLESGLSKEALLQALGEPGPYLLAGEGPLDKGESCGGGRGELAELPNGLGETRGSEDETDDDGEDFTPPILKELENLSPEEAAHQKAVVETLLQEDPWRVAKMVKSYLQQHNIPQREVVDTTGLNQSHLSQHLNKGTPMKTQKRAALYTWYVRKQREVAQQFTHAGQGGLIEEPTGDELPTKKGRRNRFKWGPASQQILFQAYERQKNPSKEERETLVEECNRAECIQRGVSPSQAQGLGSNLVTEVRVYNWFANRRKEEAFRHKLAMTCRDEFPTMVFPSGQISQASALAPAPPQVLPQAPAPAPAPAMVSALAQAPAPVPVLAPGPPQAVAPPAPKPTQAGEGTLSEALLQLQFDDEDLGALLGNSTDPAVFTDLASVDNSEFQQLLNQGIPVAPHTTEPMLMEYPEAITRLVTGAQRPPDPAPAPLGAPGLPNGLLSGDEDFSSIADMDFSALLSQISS

B1: Alkaline Phosphatase, Germ Cell (ALPG), expressed on engineered K562 cells (protein)
chain: IIPVEEENPDFWNRQAAEALGAAKKLQPAQTAAKNLIIFLGDGMGVSTVTAARILKGQKKDKLGPETFLAMDRFPYVALSKTYSVDKHVPDSGATATAYLCGVKGNFQTIGLSAAARFNQCNTTRGNEVISVMNRAKKAGKSVGVVTTTRVQHASPAGAYAHTVNRNWYSDADVPASARQEGCQDIATQLISNMDIDVILGGGRKYMFPMGTPDPEYPDDYSQGGTRLDGKNLVQEWLAKHQGARYVWNRTELLQASLDPSVTHLMGLFEPGDMKYEIHRDSTLDPSLMEMTEAALLLLSRNPRGFFLFVEGGRIDHGHHESRAYRALTETIMFDDAIERAGQLTSEEDTLSLVTADHSHVFSFGGYPLRGSSIFGLAPGKARDRKAYTVLLYGNGPGYVLKDGARPDVTESESGSPEYRQQSAVPLDGETHAGEDVAVFARGPQAHLVHGVQEQTFIAHVMAFAACLEPYTACDLAPRAGTTD
In the case of B1, the “% CAR Conversion, time to peak” value is reported as “reached a peak after around 100 hours of stimulation with the PrimeR antigen”.
